A short description of the data set: yeast display, Sf9 membrane polyspecificity reagent, FACS + sequencing; frameworks hold sequencing errors. Put shortly: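 Using colony PCR, genes from sorted yeast display clones were amplified, then sequenced on MiSeq at 2 × 250 and filtered by CDR length. The clones had been stained with 10% biotinylated, detergent-solubilized Sf9 membrane reagent for 1 hour at 4 °C and sorted by FACS into low and high (top ~1%) gates on anti-HA and streptavidin fluorescence. Polyreactivity labels come from the gate of origin.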
For “QVQLVESGGGLVQAGGSLRLSCAASGFIFLINAMGWYRQAPGKERELVAGITSGGGNTYYADSVKGRFTISRDNAKNTVYLQMYSLKPEDTAVFYCAARLFDYWGQGTQVTVSS”, the “polyreactivity (PSR sort gate)” value is “low polyreactivity”.
As for “QVQLVESGGGLVQAGGSLRLSCAASGNIFGYYAMGWYRQAPGKERELVAAIRTRGGRTYYADSVKGRFTISRDNAKTTVYLQMNSLKPEDTAVYYGAARSIAGFWRYDYWGQGTQVTVSS”, the entry is “high polyreactivity”.
The same measure for “QVQLVESGGGLVQAGGSLRLSCAASGFTFYEYAMGWYRQAPGKERELVAAITQTGVRTYYADSVKGRFTISRDNAKNTVYLQMNSLKPEDTAVYYCAADDPRQRPRGHYDYWGQGTQVTVSS”: “low polyreactivity”; for “QVQLVESGGGLVQAGGSLRLSCAASGSIFIGYAMGWYRQAPGKERELVAAISWSGDSTYYADSVKGRFTISRDNAKNTVYLQMNSLKPEDTAGYYCAADDLDYDNYYQITGEYDYWGQGTQVTVSS”: “high polyreactivity”; for “QVQLVESGGGLVQAGGSLRLSCAASGSIFTVYAIGWYRQAPGKEREFVADIDSGGTYYADSVKGRFTISRDNAKNTVYLQMNSLKPEDSAVYYCAALAALDYGQLYLADDDYWGQGTQVTVSS”: “low polyreactivity”.
With “QVQIVDSGVGLVQAGGSLRLSCAASGSIFKYNAKGWYREAPGKVRELVAAIRWSGVGTRYADSVKGRFTISRVNAKNTVYLQMNSLKPEDTAVYSCAARYGRHRVSCYATWRYGYWGQGTQVTVSS”, the “polyreactivity (PSR sort gate)” value is recorded as “low polyreactivity”.
In the case of “QVQLVESGGGLVQAGASLRLSCAASGSIFAGYAMGWYRQAPWKERELVAAISWSGGGTYYADSVKGRFTISRDNEKNTVYLQMNSLKPEDTAVYYCNAYGYRHRGNGYWGQGTQVTVSS”, the “polyreactivity (PSR sort gate)” value is on record as “high polyreactivity”.
The same measure for “QVQLVESGGGIVQVGRSLPISSAAYGRTFVYYAMGWYRQAPGKERELVARISRSGGRTFYADSVKGRFTISRDNAKNTVYLVLYSQKPEDTAVYYCNSSDVHVTTYGYWGQGTQVSVSS”: “low polyreactivity”; for “QVQLVESGGGLVQAGGSLRLSCAASGRTFNRNAMGWYRQAPGKERELVAAISWGGSRTYYADSVKGRFTISRDTAKNTVYLQMNSLKPEDTAVYYCAVDGFRGRSHGANDYWGQGTQVTVSS”: “high polyreactivity”.
Regarding “QVQLVESGGGLVQAGGSLRLSCAASGIIFSYNTMGWYRPAPGKERELVAAISRTGGRTYYADSVKGRFTNSRDNAKITVYLQMNSLKPEDTAVYYCAAEQQYASMGYDYWGLGTQVTVSS”, the “polyreactivity (PSR sort gate)” value is on record as “high polyreactivity”.
As for “QVQLVESGGGLGQAGGSLRLSCAASGRIFNTYAMGWYRQAPGKERELVAAITRSAGRTYYADSVKGRFTISRDNAKNTGYLQMNSQKPEDTAVYYCAAQYNYGQRSGPYGYWGQGTQVTVSS”, the entry is “low polyreactivity”; as for “QVQLVESGGGLVQEGGSLRLSCAASGIIFQRNDMGWYRQAPGKERELVANIRDGGITYADSVKGRFTISRDNAKNTVYLQMNSLKPEDTAVYYCARDDTSPGYGDQSSNAAYYYWGQGTQVTVSS”, “low polyreactivity”.
As for “QVQLVESGGGLVQAGGSLRLSCAASGITFVPNAMGWYRQAPGKERELVARIDNGVSTNYADSVKGRFTISRDNAKNTVYLQMNSLKPEDTAVYYCAKDGYWGDWDLYYWGQGTQVTVSS”, the entry is “low polyreactivity”.
The same measure for “QVQLVESGGGLVQAGGSLRLSCAASGRTFYRNAMGWYRQAPGKERELVARISRNGGTTYYADSVKGRFTISRDNAKNTVYLQMNSLKPEDTAVYYCAAPIYDGARGDYWGQGTQVTVSS”: “high polyreactivity”; for “QVQLVESGVGLVQAGGSLRLSCAASGIIFVTYTMAWYRQAHGKEREFVAAITRRGSRTYYADSVKGRFTISRDNAKNTVYLQMNSPKPEDTAVYYCNAVPRWSYVDEDSWGQGTQVTVSS”: “high polyreactivity”; for “QVQLVESGGGLVQAGGSLRLSCAASGSISAGNAMGWYRQAPGKERELVAAITTSGGSTYYADSVKGRFTISRDNAKNTVYLQMNSLKPEDTAVYYCNVDPRKRSYDYWGQGTQVTVSS”: “high polyreactivity”.
“QVQLVESGGGLVQAGGSLRLSCAASGIIIRNYGMGCYRQAPGKERELVARIRWTGGSTYYADSVKGRFTISRDNAKNTVYLQMNSLKPEDTAVYYCAADIWQYSRIANYHPYDYWGQGTQVTVSS”: the “polyreactivity (PSR sort gate)” value was “low polyreactivity”.
As for “QVQLVESVGGLVQAGGSLRLSCAASGSIFRVYAMGWYRQAPGKERELVATISGSAGRTYYADSVKGRFTISRDNAKNTVYLQMNSLKPEDTAVYYCAARWYKEYYWGQGTQVTVSS”, the entry is “high polyreactivity”; as for “QVQLVESGGGLDQAGGSLRLSCAASGGTFYYYAMGWYRQPPGKERELVAAITKNGGSTYYADSVKGRFTNSRDNAKNTVYLQMNRLKPEDTAVYSCAKATVAYGWWRYNYWGQGTQVTVSS”, “high polyreactivity”; as for “QVQLVESGGGLVQAGGSLRLSCAASGSIFSPYAMGWYRQAPGKERELVAAISFRASTTYYADSVKGRFTISRDNAKNTVYLQMNSLKPEYTAVYYCAKKRPGFLRYGSIGEFQYDYWGQGTQVTVSS”, “low polyreactivity”.
As for “QVQLVESGGGLVQAGASLRLSCAASGIILGSYAMGWYRQAPAKERELVAGITSGGGKYYADSVKGRFTISRDNAKNTVYLQMNSMKPEYTAVYYCAKLYFHYYRYGYWGQGTQVTVSS”, the entry is “low polyreactivity”; as for “QVQLVESGGGLVQAGGSLRLSCAASGRTLSYYAMGWYRQAPGKEREFVAAINWSGGSTYYADSVKGRFTISRDNAKNTVYLQMISLKPEDTAVYYCAAYRPYSSSEGDYWGQGTQVTVSS”, “high polyreactivity”.
“QVQLVESGGGLVQAGGSLRLSCAASGFTFYANAMGWYRQAPGKERELVAAISKSGGRTYYADSVKGRFTISRDNAKNTVYLQMNSLKPEDTAVYYCAAVGSVNYEADFDYWGQGTQVTVSS”: the “polyreactivity (PSR sort gate)” value was “high polyreactivity”.
As to “QVQLVESGGGLVQAGGSLRLSCAASGYTFFFNVMGWYRQAPGKERELVAAISYSGGSTNYADSVKGRFTISRDNAKNTVYLQMNSLKPEDTAVYYCNARTVSRNGYQDDYWGQGTQVTVSS”, the “polyreactivity (PSR sort gate)” value was “low polyreactivity”.
As for “QVQLVESGGRVDQAGGSLRLRCAASGRTFPVYAMGWYRQAPGKERELVAAITRCDDSTYYADSVKGRFTISRDNAKNTVYFEMNSLKPEDTAVYYCARSSRESYEYDYWGQGTQVTVSS”, the entry is “low polyreactivity”; as for “QVHLVESGGGLVQAGGSLRLSCAASGSTFVTYAMGWYTQAPGKEREFVAAISSTGTGRTYYADSVKGRFTISRDNAKNTVYLQMNSLKPEDTAVYYCAADLYGTYDYCGQGTQVTVSS”, “low polyreactivity”; as for “QVQLVESGGGLVQAGGSLRLSCAASGRTFYVKSMGWYRQAPGKERELVAGISFSDGSTYYADSVKGRFTISRDNAKNTVYLQMNSLKPEDTAVYYCATVGAFDIYYGYGYWGQGTQVTVSS”, “low polyreactivity”.
On to “QVQLVESGGGLVQAGGSLRLSCAASGSTFADYVMGWYRQAPGKERELVAAISRSGGSTYYADSEKGRFTISRDTAKNTVYLQTNSLKPEDTAVYYCAAVKARRYDYWGQGTQVTVSS”, for which the “polyreactivity (PSR sort gate)” value is “high polyreactivity”.
As for “QVQLVESGGGLVQAGGSLRLSCAASGSIFFPYAMGWYRQAPGKEREFVAAITGSGTSTYYADSVKGRFTISRDNAKNTVYLQMNSLKPEDTAVYYCNAKRDRYFYTVKYDYWGQGTQVTVSS”, the “polyreactivity (PSR sort gate)” value is given as “low polyreactivity”.
In the case of “QVQLVESGGGLVQAGGRLRLSCAASGSTFGLNAMGWYRQAPGTERELVAAITSRGTRTYYADSVKGRFTISRDNAKNTVYLQMNSLKTEDTAGYKCAKDSGATRYGEYDYWGQGTQVTVSS”, the “polyreactivity (PSR sort gate)” value is “low polyreactivity”.

The values above are taken from the nanobody polyreactivity screen of Harvey et al. (2022).
